{
  "source": "paper PMC9630130",
  "about": "“Molecular interactions of FG nucleoporin repeats at high resolution” (Nature Chemistry, 2022)",
  "proteins": {"B1": {"name": "Nup98(345–384) peptide (peptide, UniProt P52948 345-384, looked up)", "peptide": "Ac-TGTGLFGQTNTGFGAVGSTLFGNNKLTTFGSSTTSAPSFG-NH2", "notes": "human nucleoporin 98 (Nup98), residues 345-384; source: synthetic peptide (solid-phase synthesis, Genscript)"}, "B2": {"name": "Nup98(298–327) peptide (peptide, UniProt P52948 298-327, looked up)", "peptide": "Ac-TGFSFGNTSTIGQPSTNTMGLFGVTQASQP-NH2", "notes": "human nucleoporin 98 (Nup98), residues 298-327; source: synthetic peptide (solid-phase synthesis, Genscript)"}, "B3": {"name": "Nup98(95–124) peptide with Q105 and Q111 replaced by serine (peptide, UniProt P52948 95-124, looked up)", "peptide": "ASTGTSLFSSSNNAFASNKPTGFGNFGTST", "notes": "also called glutamine-to-serine mutant peptide; source: synthetic peptide (solid-phase synthesis, Genscript)"}, "B4": {"name": "FG-repeat domain of human Nup98 (Nup98^FG, residues 1–384) (domain or fragment, UniProt P52948 1-384, looked up)", "chain": "MFNKSFGTPFGGGTGGFGTTSTFGQNTGFGTTSGGAFGTSAFGSSNNTGGLFGNSQTKPGGLFGTSSFSQPATSTSTGFGFGTSTGTANTLFGTASTGTSLFSSQNNAFAQNKPTGFGNFGTSTSSGGLFGTTNTTSNPFGSTSGSLFGPSSFTAAPTGTTIKFNPPTGTDTMVKAGVSTNISTKHQCITAMKEYESKSLEELRLEDYQANRKGPQNQVGAGTTTGLFGSSPATSSATGLFSSSTTNSGFAYGQNKTAFGTSTTGFGTNPGGLFGQQNQQTTSLFSKPFGQATTTQNTGFSFGNTSTIGQPSTNTMGLFGVTQASQPGGLFGTATNTSTGTAFGTGTGLFGQTNTGFGAVGSTLFGNNKLTTFGSSTTSAPSFG", "notes": "human nucleoporin 98 (Nup98), amino-terminal 384 residues (FG-repeat domain), in pET28a between NheI and XhoI; The methods describe no step that cleaves the His tag; also called 384-residue Nup98^FG domain; source: E. coli BL21(DE3), purified from the pellet in urea (Ni-NTA, two SEC steps)"}, "B5": {"name": "Nup98^FG85 (residues 85–124 of human Nup98) (peptide, UniProt P52948 85-124, looked up)", "peptide": "TGTANTLFGTASTGTSLFSSQNNAFAQNKPTGFGNFGTST", "notes": "It forms amyloid fibrils of indefinite length with 3 (pm1) or 2 (pm2-pm4) protofilaments; also called Nup98^FG85 segment; source: synthetic peptide (solid-phase synthesis, Genscript)"}, "B6": {"name": "Nup98(95–124) peptide with F117 and F120 replaced by serine (peptide, UniProt P52948 95-124, looked up)", "peptide": "ASTGTSLFSSQNNAFAQNKPTGSGNSGTST", "notes": "also called phenylalanine-to-serine mutant peptide; source: synthetic peptide (solid-phase synthesis, Genscript)"}, "B7": {"name": "Nup98(95–124) peptide (peptide, UniProt P52948 95-124, looked up)", "peptide": "Ac-ASTGTSLFSSQNNAFAQNKPTGFGNFGTST-NH2", "notes": "source: synthetic peptide (solid-phase synthesis, Genscript)"}},
  "key": {"[1]": {"molecular_target": "the molecule itself", "assay": "aggregation of NMR assignment samples; 2 mM peptide in 50 mM sodium phosphate, 0.01% NaN3, 5% D2O, pH 6.8; NMR at 5 °C"}, "[2]": {"molecular_target": "the molecule itself", "assay": "time-dependent loss of NMR signal (self-association/aggregation); synthetic Nup98 peptides alone in solution; propensity = difference between the NMR signal expected for the peptide concentration and that observed after 1 day of incubation at 5 °C (Fig. 2c); kinetics of 95-124 and its mutants in Supplementary Fig. 5"}, "[3]": {"molecular_target": "the molecule itself", "assay": "loss of 1D 1H NMR signal on change of pH; Nup98^FG (200 μM) or Nup98^FG85 (100 μM) in 50 mM sodium phosphate, 1 mM TCEP, 0.01% NaN3, 5% D2O; pH 3, adjusted to pH 7, then back to pH 3 and 30 min at 65 °C"}, "[4]": {"molecular_target": "the molecule itself", "assay": "cryo-EM structure; amyloid fibrils of Nup98^FG85: peptide dissolved in pure water at 1.5 mM, incubated at 25 °C for 1 h; helical reconstruction of four polymorphs (pm1-pm4)"}},
  "data": [
    {"protein": "B1", "values": [
      {"measurement": "binding result", "setting": "[1]", "value": "binds"}
    ]},
    {"protein": "B2", "values": [
      {"measurement": "binding result", "setting": "[1]", "value": "binds"}
    ]},
    {"protein": "B3", "values": [
      {"measurement": "binding result", "setting": "[2]", "value": "binds"}
    ]},
    {"protein": "B4", "values": [
      {"measurement": "binding result", "setting": "[3]", "value": "binds"}
    ]},
    {"protein": "B5", "values": [
      {"measurement": "binding result", "setting": "[4]", "value": "binds"}
    ]},
    {"protein": "B6", "values": [
      {"measurement": "binding result", "setting": "[2]", "value": "binds"}
    ]},
    {"protein": "B7", "values": [
      {"measurement": "binding result", "setting": "[2]", "value": "binds"}
    ]}
  ]
}
